Test results from the supplement of paper PMC9428881.
± gives the standard error.

Assay: background-corrected fluorescence of 3'-dye-labeled ssDNA relative to brightest sequence (3'-GCGCG) (fraction); higher = brighter dye fluorescence (less quenching)
Settings: dye: Cy5 (3' terminal)
Outline: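 Single-stranded DNA was built on glass slides by light-directed phosphoramidite synthesis, ending in a 3' Cy3 or Cy5 dye beside each of 1024 permuted pentamers. Arrays were washed in acetonitrile for 2 h at r.t., then scanned at 532 or 635 nm before and after overnight ethylenediamine/ethanol deprotection. Each value averages 10 features per array and at least 3 syntheses. Fluorescence, corrected by subtracting unlabeled-oligo background, is scaled to the brightest sequence.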
With “TTTTTTGAGCATCAGCATGATTTTTTTTTTTTTTTCTGTC” the background-corrected fluorescence was 0.352 ± 0.018. “TTTTTTGAGCATCAGCATGCTTTTTTTTTTTTTTTCTGTA [ATGTC]” showed a background-corrected fluorescence of 0.429 ± 0.072. For “TTTTTTGAGCATCATCAGCATTTTTTTTTTTTTTTCTGGT [TGGTC]”, the background-corrected fluorescence was 0.557 ± 0.035. With “TTTTTTGAGCATCATCATCATTTTTTTTTTTTTTTCTGGG [GGGTC]” the background-corrected fluorescence was 0.563 ± 0.043. Work on “TTTTTTGAGCATCATCATGATTTTTTTTTTTTTTTCTGGC [CGGTC]” yielded a background-corrected fluorescence of 0.439 ± 0.035. For “TTTTTTGAGCATCATCATGCTTTTTTTTTTTTTTTCTGGA [AGGTC]”, the background-corrected fluorescence was 0.605 ± 0.047. “TTTTTTGAGCATCATGAGCATTTTTTTTTTTTTTTCTGCT [TCGTC]” showed a background-corrected fluorescence of 0.39 ± 0.049. With “TTTTTTGAGCATCATGATCATTTTTTTTTTTTTTTCTGCG [GCGTC]” the background-corrected fluorescence was 0.483 ± 0.051. Work on “TTTTTTGAGCATCATGATGATTTTTTTTTTTTTTTCTGCC [CCGTC]” yielded a background-corrected fluorescence of 0.312 ± 0.018. Sequence “TTTTTTGAGCATCATGATGCTTTTTTTTTTTTTTTCTGCA [ACGTC]” has a background-corrected fluorescence of 0.452 ± 0.046. “TTTTTTGAGCATCATGCGCATTTTTTTTTTTTTTTCTGAT [TAGTC]” gave a background-corrected fluorescence of 0.455 ± 0.036. With “TTTTTTGAGCATCATGCTCATTTTTTTTTTTTTTTCTGAG [GAGTC]” the background-corrected fluorescence was 0.479 ± 0.041. With “TTTTTTGAGCATCATGCTGATTTTTTTTTTTTTTTCTGAC [CAGTC]” the background-corrected fluorescence was 0.354 ± 0.033. “TTTTTTGAGCATCATGCTGCTTTTTTTTTTTTTTTCTGAA [AAGTC]” gave a background-corrected fluorescence of 0.514 ± 0.029. Sequence “TTTTTTGAGCATGAGCAGCATTTTTTTTTTTTTTTCTCTT” has a background-corrected fluorescence of 0.334 ± 0.024. “TTTTTTGAGCATGAGCATCATTTTTTTTTTTTTTTCTCTG [GTCTC]” gave a background-corrected fluorescence of 0.352 ± 0.033. Work on “TTTTTTGAGCATGAGCATGATTTTTTTTTTTTTTTCTCTC” yielded a background-corrected fluorescence of 0.284 ± 0.019. For “TTTTTTGAGCATGAGCATGCTTTTTTTTTTTTTTTCTCTA [ATCTC]”, the background-corrected fluorescence was 0.36 ± 0.023. Sequence “TTTTTTGAGCATGATCAGCATTTTTTTTTTTTTTTCTCGT [TGCTC]” has a background-corrected fluorescence of 0.416 ± 0.024. With “TTTTTTGAGCATGATCATCATTTTTTTTTTTTTTTCTCGG [GGCTC]” the background-corrected fluorescence was 0.508 ± 0.037. Sequence “TTTTTTGAGCATGATCATGATTTTTTTTTTTTTTTCTCGC [CGCTC]” has a background-corrected fluorescence of 0.412 ± 0.035. “TTTTTTGAGCATGATCATGCTTTTTTTTTTTTTTTCTCGA [AGCTC]” gave a background-corrected fluorescence of 0.49 ± 0.03. “TTTTTTGAGCATGATGAGCATTTTTTTTTTTTTTTCTCCT [TCCTC]” gave a background-corrected fluorescence of 0.33 ± 0.032. “TTTTTTGAGCATGATGATCATTTTTTTTTTTTTTTCTCCG [GCCTC]” gave a background-corrected fluorescence of 0.426 ± 0.028. With “TTTTTTGAGCATGATGATGATTTTTTTTTTTTTTTCTCCC [CCCTC]” the background-corrected fluorescence was 0.269 ± 0.018. Sequence “TTTTTTGAGCATGATGATGCTTTTTTTTTTTTTTTCTCCA [ACCTC]” has a background-corrected fluorescence of 0.356 ± 0.055. With “TTTTTTGAGCATGATGCGCATTTTTTTTTTTTTTTCTCAT [TACTC]” the background-corrected fluorescence was 0.378 ± 0.019. Sequence “TTTTTTGAGCATGATGCTCATTTTTTTTTTTTTTTCTCAG [GACTC]” has a background-corrected fluorescence of 0.389 ± 0.03. Sequence “TTTTTTGAGCATGATGCTGATTTTTTTTTTTTTTTCTCAC [CACTC]” has a background-corrected fluorescence of 0.314 ± 0.022. “TTTTTTGAGCATGATGCTGCTTTTTTTTTTTTTTTCTCAA [AACTC]” gave a background-corrected fluorescence of 0.395 ± 0.02. For “TTTTTTGAGCATGCGCAGCATTTTTTTTTTTTTTTCTATT [TTATC]”, the background-corrected fluorescence was 0.402 ± 0.056. With “TTTTTTGAGCATGCGCATCATTTTTTTTTTTTTTTCTATG [GTATC]” the background-corrected fluorescence was 0.383 ± 0.029. In the case of “TTTTTTGAGCATGCGCATGATTTTTTTTTTTTTTTCTATC”, the background-corrected fluorescence is reported as 0.309 ± 0.018. With “TTTTTTGAGCATGCGCATGCTTTTTTTTTTTTTTTCTATA [ATATC]” the background-corrected fluorescence was 0.411 ± 0.023. With “TTTTTTGAGCATGCTCAGCATTTTTTTTTTTTTTTCTAGT [TGATC]” the background-corrected fluorescence was 0.451 ± 0.029. In the case of “TTTTTTGAGCATGCTCATCATTTTTTTTTTTTTTTCTAGG [GGATC]”, the background-corrected fluorescence is reported as 0.507 ± 0.036. Work on “TTTTTTGAGCATGCTCATGATTTTTTTTTTTTTTTCTAGC [CGATC]” yielded a background-corrected fluorescence of 0.407 ± 0.04. “TTTTTTGAGCATGCTCATGCTTTTTTTTTTTTTTTCTAGA [AGATC]” gave a background-corrected fluorescence of 0.529 ± 0.026. Work on “TTTTTTGAGCATGCTGAGCATTTTTTTTTTTTTTTCTACT [TCATC]” yielded a background-corrected fluorescence of 0.33 ± 0.024. Work on “TTTTTTGAGCATGCTGATCATTTTTTTTTTTTTTTCTACG [GCATC]” yielded a background-corrected fluorescence of 0.416 ± 0.022. Sequence “TTTTTTGAGCATGCTGATGATTTTTTTTTTTTTTTCTACC [CCATC]” has a background-corrected fluorescence of 0.284 ± 0.016. With “TTTTTTGAGCATGCTGATGCTTTTTTTTTTTTTTTCTACA [ACATC]” the background-corrected fluorescence was 0.364 ± 0.024. Sequence “TTTTTTGAGCATGCTGCGCATTTTTTTTTTTTTTTCTAAT [TAATC]” has a background-corrected fluorescence of 0.394 ± 0.027. In the case of “TTTTTTGAGCATGCTGCTCATTTTTTTTTTTTTTTCTAAG [GAATC]”, the background-corrected fluorescence is reported as 0.427 ± 0.031. Sequence “TTTTTTGAGCATGCTGCTGATTTTTTTTTTTTTTTCTAAC [CAATC]” has a background-corrected fluorescence of 0.316 ± 0.032. In the case of “TTTTTTGAGCATGCTGCTGCTTTTTTTTTTTTTTTCTAAA [AAATC]”, the background-corrected fluorescence is reported as 0.457 ± 0.021. For “TTTTTTGATCAGCAGCAGCATTTTTTTTTTTTTTTCGTTT [TTTGC]”, the background-corrected fluorescence was 0.393 ± 0.026. “TTTTTTGATCAGCAGCATCATTTTTTTTTTTTTTTCGTTG [GTTGC]” gave a background-corrected fluorescence of 0.422 ± 0.051. “TTTTTTGATCAGCAGCATGATTTTTTTTTTTTTTTCGTTC [CTTGC]” gave a background-corrected fluorescence of 0.321 ± 0.028. For “TTTTTTGATCAGCAGCATGCTTTTTTTTTTTTTTTCGTTA [ATTGC]”, the background-corrected fluorescence was 0.398 ± 0.052. Sequence “TTTTTTGATCAGCATCAGCATTTTTTTTTTTTTTTCGTGT [TGTGC]” has a background-corrected fluorescence of 0.466 ± 0.037. “TTTTTTGATCAGCATCATCATTTTTTTTTTTTTTTCGTGG [GGTGC]” gave a background-corrected fluorescence of 0.483 ± 0.033. “TTTTTTGATCAGCATCATGATTTTTTTTTTTTTTTCGTGC” showed a background-corrected fluorescence of 0.397 ± 0.027. With “TTTTTTGATCAGCATCATGCTTTTTTTTTTTTTTTCGTGA [AGTGC]” the background-corrected fluorescence was 0.531 ± 0.037. For “TTTTTTGATCAGCATGAGCATTTTTTTTTTTTTTTCGTCT [TCTGC]”, the background-corrected fluorescence was 0.36 ± 0.015. With “TTTTTTGATCAGCATGATCATTTTTTTTTTTTTTTCGTCG [GCTGC]” the background-corrected fluorescence was 0.463 ± 0.024. In the case of “TTTTTTGATCAGCATGATGATTTTTTTTTTTTTTTCGTCC [CCTGC]”, the background-corrected fluorescence is reported as 0.315 ± 0.021. Sequence “TTTTTTGATCAGCATGATGCTTTTTTTTTTTTTTTCGTCA [ACTGC]” has a background-corrected fluorescence of 0.378 ± 0.032. In the case of “TTTTTTGATCAGCATGCGCATTTTTTTTTTTTTTTCGTAT [TATGC]”, the background-corrected fluorescence is reported as 0.401 ± 0.064. Work on “TTTTTTGATCAGCATGCTCATTTTTTTTTTTTTTTCGTAG [GATGC]” yielded a background-corrected fluorescence of 0.435 ± 0.03. In the case of “TTTTTTGATCAGCATGCTGATTTTTTTTTTTTTTTCGTAC”, the background-corrected fluorescence is reported as 0.376 ± 0.053. “TTTTTTGATCAGCATGCTGCTTTTTTTTTTTTTTTCGTAA [AATGC]” showed a background-corrected fluorescence of 0.428 ± 0.024. “TTTTTTGATCATCAGCAGCATTTTTTTTTTTTTTTCGGTT [TTGGC]” gave a background-corrected fluorescence of 0.427 ± 0.024. With “TTTTTTGATCATCAGCATCATTTTTTTTTTTTTTTCGGTG [GTGGC]” the background-corrected fluorescence was 0.484 ± 0.031. Work on “TTTTTTGATCATCAGCATGATTTTTTTTTTTTTTTCGGTC [CTGGC]” yielded a background-corrected fluorescence of 0.407 ± 0.042. Sequence “TTTTTTGATCATCAGCATGCTTTTTTTTTTTTTTTCGGTA [ATGGC]” has a background-corrected fluorescence of 0.488 ± 0.029. “TTTTTTGATCATCATCAGCATTTTTTTTTTTTTTTCGGGT [TGGGC]” gave a background-corrected fluorescence of 0.616 ± 0.068. “TTTTTTGATCATCATCATCATTTTTTTTTTTTTTTCGGGG [GGGGC]” showed a background-corrected fluorescence of 0.65 ± 0.044.
